Source: PMC4188699
“And” between values parts separate entries of the source, which are not always exact repeats. Equal values may be shown once.

T1: human CSPα L115R, purified from E. coli (human), Q9H3Z4
T1 chain: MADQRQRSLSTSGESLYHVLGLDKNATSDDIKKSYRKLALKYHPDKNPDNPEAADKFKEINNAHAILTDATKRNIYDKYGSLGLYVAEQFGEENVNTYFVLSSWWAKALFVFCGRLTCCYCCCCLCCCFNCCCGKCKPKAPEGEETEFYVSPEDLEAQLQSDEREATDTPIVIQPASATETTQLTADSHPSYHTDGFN

B1: human CSPα L115R, purified from E. coli, Q9H3Z4 1-198 (natural protein)
chain: T1 chain
B2: human CSPα L115R, purified from E. coli (protein)
chain: T1 chain
B3: human CSPα L116Δ, purified from E. coli (protein)
chain: MADQRQRSLSTSGESLYHVLGLDKNATSDDIKKSYRKLALKYHPDKNPDNPEAADKFKEINNAHAILTDATKRNIYDKYGSLGLYVAEQFGEENVNTYFVLSSWWAKALFVFCGLTCCYCCCCLCCCFNCCCGKCKPKAPEGEETEFYVSPEDLEAQLQSDEREATDTPIVIQPASATETTQLTADSHPSYHTDGFN

Experiments:
[1] = molecular target: T1, human CSPα L115R, purified from E. coli …; test: SDS-PAGE of SDS-resistant oligomers; conditions: remark: other sources report otherwise
Q9H3Z4 = test: SDS-PAGE of SDS-resistant oligomers; conditions: other: SDS-PAGE of SDS-resistant oligomers

Row | Binder | stoichiometry N [1] | HMW oligomers, fold versus WT (Q9H3Z4) [fold versus WT]
1 | B1 | 2 and 4 | 
2 | B2 |  | 58.9 ± 5.9
3 | B3 |  | 13.2 ± 3.9
